Experimental data taken from paper PMC9579167, “Structure of the proteolytic enzyme PAPP-A with the endogenous inhibitor stanniocalcin-2 reveals its inhibitory mechanism” (Nature Communications, 2022).

T1: 415-residue monomeric C-terminal PAPP-A fragment, PA(T1213-G1627) (human, UniProt Q13219 1213-1627)
T1 construct: PAPP-A, human, residues T1213-G1627 (SCR1-5 and the C domain with LNR3); also called PAPP-A(T1213-G1627); C-terminal fragment of PAPP-A truncated at SCR1; source: 293T cells, transient transfection
T1 sequence (looked up): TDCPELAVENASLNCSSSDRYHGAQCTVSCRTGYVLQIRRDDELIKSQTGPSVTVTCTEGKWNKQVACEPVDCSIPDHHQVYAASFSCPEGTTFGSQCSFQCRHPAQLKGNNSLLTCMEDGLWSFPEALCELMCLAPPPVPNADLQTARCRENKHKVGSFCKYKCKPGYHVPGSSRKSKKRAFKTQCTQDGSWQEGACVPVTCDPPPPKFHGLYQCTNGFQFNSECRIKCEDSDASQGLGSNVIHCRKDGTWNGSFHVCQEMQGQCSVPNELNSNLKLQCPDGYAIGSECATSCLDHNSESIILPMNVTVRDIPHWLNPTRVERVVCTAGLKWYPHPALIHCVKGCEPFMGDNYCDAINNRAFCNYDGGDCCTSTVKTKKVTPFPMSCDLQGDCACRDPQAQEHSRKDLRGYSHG


Key:
[1] = biological target: T1, 415-residue monomeric C-terminal PAPP-A …; experiment: SPR; Biacore 3000, 25 °C; PA_T1213-G1627 amine-coupled to CM5 (7000 RU); IGFBP-4 injected 5 min at 10 µl/min; 10 mM HEPES pH 7.5, 150 mM NaCl, 2 mM CaCl2, 0.05% Tween-20; also with 10 mM EDTA; conditions: both partners purified
[2] = biological target: the molecule itself; experiment: cryo-EM structure; single-particle cryo-EM of the purified 2:2 PAPP-A(E563Q)·STC2 complex from co-cultured 293T lines; 0.6 mg/mL; 20 mM HEPES, 100 mM NaCl, 1 mM CaCl2, pH 7.4

binding result [1] | Binder | binding result [2]
binds | human IGFBP-4 (natural protein, UniProt P22692 22-258, looked up, also called pBP4mH; source: 293T cells, transient transfection) DEAIHCPPCSEEKLARCRPPVGCEELVREPGCGCCATCALGLGMPCGVYTPRCGSGLRCYPPRGVEKPLHTLMHGQGVCMELAEIEAIQESLQPSDKDEGDHPNNSFSPCSAHDRRCLQKHFAKIRDRSTSGGKMKVNGAPREDARPVPQGSCQSELHRALERLAASQSRTHEDLYIIPIPNCDRNGNFHPKQCHPALDGQRGKCWCVDRKTGVKLPGGLEPKGELDCHQLADSFRE | 
 | active site-inactivated human PAPP-A (E563Q) (enzyme, UniProt Q13219 82-1627, looked up, N-glycans at N390, N402, N429, N480, N601, N725, N825, N1323, numbers count on UniProt Q13219; also called pregnancy-associated plasma protein-A; pappalysin-1) EARGATEEPSPPSRALYFSGRGEQLRLRADLELPRDAFTLQVWLRAEGGQRSPAVITGLYDKCSYISRDRGWVVGIHTISDQDNKDPRYFFSLKTDRARQVTTINAHRSYLPGQWVYLAATYDGQFMKLYVNGAQVATSGEQVGGIFSPLTQKCKVLMLGGSALNHNYRGYIEHFSLWKVARTQREILSDMETHGAHTALPQLLLQENWDNVKHAWSPMKDGSSPKVEFSNAHGFLLDTSLEPPLCGQTLCDNTEVIASYNQLSSFRQPKVVRYRVVNLYEDDHKNPTVTREQVDFQHHQLAEAFKQYNISWELDVLEVSNSSLRRRLILANCDISKIGDENCDPECNHTLTGHDGGDCRHLRHPAFVKKQHNGVCDMDCNYERFNFDGGECCDPEITNVTQTCFDPDSPHRAYLDVNELKNILKLDGSTHLNIFFAKSSEEELAGVATWPWDKEALMHLGGIVLNPSFYGMPGHTHTMIHQIGHSLGLYHVFRGISEIQSCSDPCMETEPSFETGDLCNDTNPAPKHKSCGDPGPGNDTCGFHSFFNTPYNNFMSYADDDCTDSFTPNQVARMHCYLDLVYQGWQPSRKPAPVALAPQVLGHTTDSVTLEWFPPIDGHFFERELGSACHLCLEGRILVQYASNASSPMPCSPSGHWSPREAEGHPDVEQPCKSSVRTWSPNSAVNPHTVPPACPEPQGCYLELEFLYPLVPESLTIWVTFVSTDWDSSGAVNDIKLLAVSGKNISLGPQNVFCDVPLTIRLWDVGEEVYGIQIYTLDEHLEIDAAMLTSTADTPLCLQCKPLKYKVVRDPPLQMDVASILHLNRKFVDMDLNLGSVYQYWVITISGTEESEPSPAVTYIHGSGYCGDGIIQKDQGEQCDDMNKINGDGCSLFCRQEVSFNCIDEPSRCYFHDGDGVCEEFEQKTSIKDCGVYTPQGFLDQWASNASVSHQDQQCPGWVIIGQPAASQVCRTKVIDLSEGISQHAWYPCTISYPYSQLAQTTFWLRAYFSQPMVAAAVIVHLVTDGTYYGDQKQETISVQLLDTKDQSHDLGLHVLSCRNNPLIIPVVHDLSQPFYHSQAVRVSFSSPLVAISGVALRSFDNFDPVTLSSCQRGETYSPAEQSCVHFACEKTDCPELAVENASLNCSSSDRYHGAQCTVSCRTGYVLQIRRDDELIKSQTGPSVTVTCTEGKWNKQVACEPVDCSIPDHHQVYAASFSCPEGTTFGSQCSFQCRHPAQLKGNNSLLTCMEDGLWSFPEALCELMCLAPPPVPNADLQTARCRENKHKVGSFCKYKCKPGYHVPGSSRKSKKRAFKTQCTQDGSWQEGACVPVTCDPPPPKFHGLYQCTNGFQFNSECRIKCEDSDASQGLGSNVIHCRKDGTWNGSFHVCQEMQGQCSVPNELNSNLKLQCPDGYAIGSECATSCLDHNSESIILPMNVTVRDIPHWLNPTRVERVVCTAGLKWYPHPALIHCVKGCEPFMGDNYCDAINNRAFCNYDGGDCCTSTVKTKKVTPFPMSCDLQGDCACRDPQAQEHSRKDLRGYSHG | binds
